Laboratory results as given in patent US20220348632A1 (Novartis, published 2022).
One block for each binder: values may come before it.

Experiments:
[1] = target: T1, mouse Rae-1α over-expressed on CT26.WT cells (mouse, UniProt O08602 29-229); assay: flow cytometry titration on CT26.WT cells over-expressing mouse Rae-1α; R-PE anti-mouse Fc detection, mean R-PE fluorescence
T1 construct: whole, on cells; also called mouse RAE-1alpha; Rae-1a
T1 sequence (looked up): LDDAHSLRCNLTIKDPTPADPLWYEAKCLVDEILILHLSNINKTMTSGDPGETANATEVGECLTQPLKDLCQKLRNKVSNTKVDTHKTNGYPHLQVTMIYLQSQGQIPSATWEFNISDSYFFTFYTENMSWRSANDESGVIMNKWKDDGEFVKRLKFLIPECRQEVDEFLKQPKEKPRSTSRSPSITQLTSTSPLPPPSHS
Protocol: (§1) A […] cell sorting (FACS) based binding assay against mouse NKG2D-ligands expressed at the cell surface was performed to characterize the binding of the dimeric mouse NKG2D-Fc variants fused either to N-terminus or to C-terminus of the Fc region with no peptide linker or with different peptide linker lengths (10, 20 or 30 amino acids).
(§2) Half maximal effective concentration (EC50) in nM was determined on two different engineered stable CT26.WT cell lines, over-expressing at their surface the recombinant ligands mouse Rae-1α and mouse Rae-1E. The cells were incubated with the different concentrations of protein in DPBS supplemented with 5% FCS and 0.04% NaN₃ (FACS buffer). […] For each sample, the mean of the resulting fluorescence of alive gated cells was extracted using the Cell Quest Pro software (BD Biosciences).

[2] = target: T2, mouse Rae-1ε over-expressed on CT26.WT cells (mouse, UniProt Q9CZQ6 29-225); assay: flow cytometry titration on CT26.WT cells over-expressing mouse Rae-1ε; R-PE anti-mouse Fc detection, mean R-PE fluorescence
T2 construct: whole, on cells; also called mouse RAE-1 epsilon; Rae-1E
T2 sequence (looked up): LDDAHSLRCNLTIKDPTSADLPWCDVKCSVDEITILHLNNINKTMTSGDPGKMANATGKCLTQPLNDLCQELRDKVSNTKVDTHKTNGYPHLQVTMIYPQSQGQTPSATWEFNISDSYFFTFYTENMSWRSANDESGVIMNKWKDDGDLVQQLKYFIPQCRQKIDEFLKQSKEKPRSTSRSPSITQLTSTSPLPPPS
Protocol: as §1, §2

B2: MM8, mFc2-(G4S)6-mNKG2D (aa94-232)-RS(G3S)2-mNKG2D (aa94-232) (Fc fusion)
chain: ISAMVRSPRGPTIKPCPPCKCPAPNLLGGPSVFIFPPKIKDVLMISLSPIVTCVVVDVSEDDPDVQISWFVNNVEVHTAQTQTHREDYNSTLRVVSALPIQHQDWMSGKEFKCKVNNKDLPAPIERTISKPKGSVRAPQVYVLPPPEEEMTKKQVTLTCMVTDFMPEDIYVEWTNNGKTELNYKNTEPVLDSDGSYFMYSKLRVEKKNWVERNSYSCSVVHEGLHNHHTTKSFSRTPGKGGGGSGGGGSGGGGSGGGGSGGGGSGGGGSFQPVLCNKEVPVSSREGYCGPCPNNWICHRNNCYQFFNEEKTWNQSQASCLSQNSSLLKIYSKEEQDFLKLVKSYHWMGLVQIPANGSWQWEDGSSLSYNQLTLVEIPKGSCAVYGSSFKAYTEDCANLNTYICMKRAVRSGGGSGGGSFQPVLCNKEVPVSSREGYCGPCPNNWICHRNNCYQFFNEEKTWNQSQASCLSQNSSLLKIYSKEEQDFLKLVKSYHWMGLVQIPANGSWQWEDGSSLSYNQLTLVEIPKGSCAVYGSSFKAYTEDCANLNTYICMKRAV
notes: also called C-terminal variant with a linker length of 30 aa
- EC50 [1]: 15.6 nM
- EC50 [2]: 0.624 nM

B4: MM7, mFc2-(G4S)4-mNKG2D (aa94-232)-RS(G3S)2-mNKG2D (aa94-232) (Fc fusion)
chain: ISAMVRSPRGPTIKPCPPCKCPAPNLLGGPSVFIFPPKIKDVLMISLSPIVTCVVVDVSEDDPDVQISWFVNNVEVHTAQTQTHREDYNSTLRVVSALPIQHQDWMSGKEFKCKVNNKDLPAPIERTISKPKGSVRAPQVYVLPPPEEEMTKKQVTLTCMVTDFMPEDIYVEWTNNGKTELNYKNTEPVLDSDGSYFMYSKLRVEKKNWVERNSYSCSVVHEGLHNHHTTKSFSRTPGKGGGGSGGGGSGGGGSGGGGSFQPVLCNKEVPVSSREGYCGPCPNNWICHRNNCYQFFNEEKTWNQSQASCLSQNSSLLKIYSKEEQDFLKLVKSYHWMGLVQIPANGSWQWEDGSSLSYNQLTLVEIPKGSCAVYGSSFKAYTEDCANLNTYICMKRAVRSGGGSGGGSFQPVLCNKEVPVSSREGYCGPCPNNWICHRNNCYQFFNEEKTWNQSQASCLSQNSSLLKIYSKEEQDFLKLVKSYHWMGLVQIPANGSWQWEDGSSLSYNQLTLVEIPKGSCAVYGSSFKAYTEDCANLNTYICMKRAV
notes: also called C-terminal variant with a linker length of 20 aa
- EC50 [1]: 13 nM
- EC50 [2]: 1.5 nM

B5: MM6, mFc2-(G4S)2-mNKG2D (aa94-232)-RS(G3S)2-mNKG2D (aa94-232) (Fc fusion)
chain: ISAMVRSPRGPTIKPCPPCKCPAPNLLGGPSVFIFPPKIKDVLMISLSPIVTCVVVDVSEDDPDVQISWFVNNVEVHTAQTQTHREDYNSTLRVVSALPIQHQDWMSGKEFKCKVNNKDLPAPIERTISKPKGSVRAPQVYVLPPPEEEMTKKQVTLTCMVTDFMPEDIYVEWTNNGKTELNYKNTEPVLDSDGSYFMYSKLRVEKKNWVERNSYSCSVVHEGLHNHHTTKSFSRTPGKGGGGSGGGGSFQPVLCNKEVPVSSREGYCGPCPNNWICHRNNCYQFFNEEKTWNQSQASCLSQNSSLLKIYSKEEQDFLKLVKSYHWMGLVQIPANGSWQWEDGSSLSYNQLTLVEIPKGSCAVYGSSFKAYTEDCANLNTYICMKRAVRSGGGSGGGSFQPVLCNKEVPVSSREGYCGPCPNNWICHRNNCYQFFNEEKTWNQSQASCLSQNSSLLKIYSKEEQDFLKLVKSYHWMGLVQIPANGSWQWEDGSSLSYNQLTLVEIPKGSCAVYGSSFKAYTEDCANLNTYICMKRAV
notes: also called C-terminal, 10 aa linker
- EC50 [1]: 1.15 nM
- EC50 [2]: 0.668 nM

B7: MM2, mNKG2D (aa94-232)-RS(G3S)2-mNKG2D (aa94-232)-(G4S)2-mFc2 (Fc fusion)
chain: FQPVLCNKEVPVSSREGYCGPCPNNWICHRNNCYQFFNEEKTWNQSQASCLSQNSSLLKIYSKEEQDFLKLVKSYHWMGLVQIPANGSWQWEDGSSLSYNQLTLVEIPKGSCAVYGSSFKAYTEDCANLNTYICMKRAVRSGGGSGGGSFQPVLCNKEVPVSSREGYCGPCPNNWICHRNNCYQFFNEEKTWNQSQASCLSQNSSLLKIYSKEEQDFLKLVKSYHWMGLVQIPANGSWQWEDGSSLSYNQLTLVEIPKGSCAVYGSSFKAYTEDCANLNTYICMKRAVGGGGSGGGGSISAMVRSPRGPTIKPCPPCKCPAPNLLGGPSVFIFPPKIKDVLMISLSPIVTCVVVDVSEDDPDVQISWFVNNVEVHTAQTQTHREDYNSTLRVVSALPIQHQDWMSGKEFKCKVNNKDLPAPIERTISKPKGSVRAPQVYVLPPPEEEMTKKQVTLTCMVTDFMPEDIYVEWTNNGKTELNYKNTEPVLDSDGSYFMYSKLRVEKKNWVERNSYSCSVVHEGLHNHHTTKSFSRTPGK
notes: also called N-terminal, 10 aa linker
- EC50 [1]: 1.27 nM
- EC50 [2]: 1.87 nM

Other lines, results leading:

- EC50 [1]: 1.05 nM
- EC50 [2]: 2.56 nM
B1: MM1, mNKG2D (aa94-232)-RS(G3S)2-mNKG2D (aa94-232)-mFc2 (Fc fusion)
chain: FQPVLCNKEVPVSSREGYCGPCPNNWICHRNNCYQFFNEEKTWNQSQASCLSQNSSLLKIYSKEEQDFLKLVKSYHWMGLVQIPANGSWQWEDGSSLSYNQLTLVEIPKGSCAVYGSSFKAYTEDCANLNTYICMKRAVRSGGGSGGGSFQPVLCNKEVPVSSREGYCGPCPNNWICHRNNCYQFFNEEKTWNQSQASCLSQNSSLLKIYSKEEQDFLKLVKSYHWMGLVQIPANGSWQWEDGSSLSYNQLTLVEIPKGSCAVYGSSFKAYTEDCANLNTYICMKRAVISAMVRSPRGPTIKPCPPCKCPAPNLLGGPSVFIFPPKIKDVLMISLSPIVTCVVVDVSEDDPDVQISWFVNNVEVHTAQTQTHREDYNSTLRVVSALPIQHQDWMSGKEFKCKVNNKDLPAPIERTISKPKGSVRAPQVYVLPPPEEEMTKKQVTLTCMVTDFMPEDIYVEWTNNGKTELNYKNTEPVLDSDGSYFMYSKLRVEKKNWVERNSYSCSVVHEGLHNHHTTKSFSRTPGK
notes: also called mouse NKG2D-Fc surrogate construct, N-terminal, no linker

- EC50 [1]: 0.495 nM
- EC50 [2]: 1.99 nM
B3: MM3, mNKG2D (aa94-232)-RS(G3S)2-mNKG2D (aa94-232)-(G4S)4-mFc2 (Fc fusion)
chain: FQPVLCNKEVPVSSREGYCGPCPNNWICHRNNCYQFFNEEKTWNQSQASCLSQNSSLLKIYSKEEQDFLKLVKSYHWMGLVQIPANGSWQWEDGSSLSYNQLTLVEIPKGSCAVYGSSFKAYTEDCANLNTYICMKRAVRSGGGSGGGSFQPVLCNKEVPVSSREGYCGPCPNNWICHRNNCYQFFNEEKTWNQSQASCLSQNSSLLKIYSKEEQDFLKLVKSYHWMGLVQIPANGSWQWEDGSSLSYNQLTLVEIPKGSCAVYGSSFKAYTEDCANLNTYICMKRAVGGGGSGGGGSGGGGSGGGGSISAMVRSPRGPTIKPCPPCKCPAPNLLGGPSVFIFPPKIKDVLMISLSPIVTCVVVDVSEDDPDVQISWFVNNVEVHTAQTQTHREDYNSTLRVVSALPIQHQDWMSGKEFKCKVNNKDLPAPIERTISKPKGSVRAPQVYVLPPPEEEMTKKQVTLTCMVTDFMPEDIYVEWTNNGKTELNYKNTEPVLDSDGSYFMYSKLRVEKKNWVERNSYSCSVVHEGLHNHHTTKSFSRTPGK
notes: also called N-terminal, 20 aa linker

- EC50 [1]: 0.738 nM
- EC50 [2]: 3.02 nM
B6: MM5, mFc2-mNKG2D (aa94-232)-RS(G3S)2-mNKG2D (aa94-232) (Fc fusion)
chain: ISAMVRSPRGPTIKPCPPCKCPAPNLLGGPSVFIFPPKIKDVLMISLSPIVTCVVVDVSEDDPDVQISWFVNNVEVHTAQTQTHREDYNSTLRVVSALPIQHQDWMSGKEFKCKVNNKDLPAPIERTISKPKGSVRAPQVYVLPPPEEEMTKKQVTLTCMVTDFMPEDIYVEWTNNGKTELNYKNTEPVLDSDGSYFMYSKLRVEKKNWVERNSYSCSVVHEGLHNHHTTKSFSRTPGKFQPVLCNKEVPVSSREGYCGPCPNNWICHRNNCYQFFNEEKTWNQSQASCLSQNSSLLKIYSKEEQDFLKLVKSYHWMGLVQIPANGSWQWEDGSSLSYNQLTLVEIPKGSCAVYGSSFKAYTEDCANLNTYICMKRAVRSGGGSGGGSFQPVLCNKEVPVSSREGYCGPCPNNWICHRNNCYQFFNEEKTWNQSQASCLSQNSSLLKIYSKEEQDFLKLVKSYHWMGLVQIPANGSWQWEDGSSLSYNQLTLVEIPKGSCAVYGSSFKAYTEDCANLNTYICMKRAV
notes: also called C-terminal, no linker

- EC50 [1]: 0.894 nM
- EC50 [2]: 1.65 nM
B8: MM4, mNKG2D (aa94-232)-RS(G3S)2-mNKG2D (aa94-232)-(G4S)6-mFc2 (Fc fusion)
chain: FQPVLCNKEVPVSSREGYCGPCPNNWICHRNNCYQFFNEEKTWNQSQASCLSQNSSLLKIYSKEEQDFLKLVKSYHWMGLVQIPANGSWQWEDGSSLSYNQLTLVEIPKGSCAVYGSSFKAYTEDCANLNTYICMKRAVRSGGGSGGGSFQPVLCNKEVPVSSREGYCGPCPNNWICHRNNCYQFFNEEKTWNQSQASCLSQNSSLLKIYSKEEQDFLKLVKSYHWMGLVQIPANGSWQWEDGSSLSYNQLTLVEIPKGSCAVYGSSFKAYTEDCANLNTYICMKRAVGGGGSGGGGSGGGGSGGGGSGGGGSGGGGSISAMVRSPRGPTIKPCPPCKCPAPNLLGGPSVFIFPPKIKDVLMISLSPIVTCVVVDVSEDDPDVQISWFVNNVEVHTAQTQTHREDYNSTLRVVSALPIQHQDWMSGKEFKCKVNNKDLPAPIERTISKPKGSVRAPQVYVLPPPEEEMTKKQVTLTCMVTDFMPEDIYVEWTNNGKTELNYKNTEPVLDSDGSYFMYSKLRVEKKNWVERNSYSCSVVHEGLHNHHTTKSFSRTPGK
notes: also called N-terminal, 30 aa linker
